In paper PMC10033314 one finds kcat/Km for proteolysis of the QF peptide, kcat/Km for cleavage of V1-5GAG (50 nM), time course with versikine ELISA and Kd data, which are given here for 12 molecules.

Like-named read-outs stand apart in the source and are kept apart here.

Assay [1] addresses Quenched-fluorescent peptide substrate fluorescein-5(6)-carbonyl-Ala-Glu-Leu-Asn-Gly-Arg-Pro-Ile-Ser-Ile-Ala-Lys(5(6)-TAMRA).
The target in assay [2] is Versican V1-5GAG (truncated V1, residues 21-694) (UniProt P13611).
For assay [3], the target named is ADAMTS1 (Homo sapiens) (UniProt Q9UHI8). To be noted: cited from earlier work.
Assay [4] concerns the target Versican G3 (Homo sapiens) (UniProt P13611). The settings on record: cited from earlier work.
The target of assay [5] is Versican V1-5GAG (truncated V1, residues 21-694) (UniProt P13611). The source holds these as a separate data set.

Regarding “ADAMTS1 variant MD (truncated after the disintegrin-like domain) (domain or fragment)”, in assay [1], the kcat/Km for proteolysis of the QF peptide came out at 6100 M⁻¹ s⁻¹. The kcat/Km for cleavage of V1-5GAG (50 nM), time course with versikine ELISA in assay [2] came out at 61 M⁻¹ s⁻¹.
Take “ADAMTS1 variant MDT (truncated after the central TSR motif) (domain or fragment)”: the kcat/Km for proteolysis of the QF peptide in assay [1] was found to be 6200 M⁻¹ s⁻¹. Further, in assay [2], the kcat/Km for cleavage of V1-5GAG (50 nM), time course with versikine ELISA was determined as 66 M⁻¹ s⁻¹.
Regarding “ADAMTS1 variant MDTCS (truncated after the spacer domain) (domain or fragment)”, in assay [1], the kcat/Km for proteolysis of the QF peptide amounted to 7600 M⁻¹ s⁻¹. In addition, the kcat/Km for cleavage of V1-5GAG (50 nM), time course with versikine ELISA in assay [2] turned out to be 7300 M⁻¹ s⁻¹.
By Kd is commonly meant the constant that tells how readily two partners part at equilibrium. For Fibulin-1 (from UniProt P23142), the Kd in assay [3] was 1000 nM.
In the case of “Fibulin-1 domain II (from UniProt P23142)”, the Kd in assay [4] was 26 nM.

B1: ADAMTS1 K735Q (β1-β2 loop of the spacer domain) (enzyme)
chain: FVSSHRYVETMLVADQSMAEFHGSGLKHYLLTLFSVAARLYKHPSIRNSVSLVVVKILVIHDEQKGPEVTSNAALTLRNFCNWQKQHNPPSDRDAEHYDTAILFTRQDLCGSQTCDTLGMADVGTVCDPSRSCSVIEDDGLQAAFTTAHELGHVFNMPHDDAKQCASLNGVNQDSHMMASMLSNLDHSQPWSPCSAYMITSFLDNGHGECLMDKPQNPIQLPGDLPGTSYDANRQCQFTFGEDSKHCPDAASTCSTLWCTGTSGGVLVCQTKHFPWADGTSCGEGKWCINGKCVNKTDRKHFDTPFHGSWGMWGPWGDCSRTCGGGVQYTMRECDNPVPKNGGKYCEGKRVRYRSCNLEDCPDNNGKTFREEQCEAHNEFSKASFGSGPAVEWIPKYAGVSPKDRCKLICQAKGIGYFFVLQPKVVDGTPCSPDSTSVCVQGQCVKAGCDRIIDSKKKFDKCGVCGGNGSTCKKISGSVTSAQPGYHDIITIPTGATNIEVKQRNQRGSRNNGSFLAIKAADGTYILNGDYTLSTLEQDIMYKGVVLRYSGSSAALERIRSFSPLKEPLTIQVLTVGNALRPKIKYTYFVKKKKESFNAIPTFSAWVIEEWGECSKSCELGWQRRLVECRDINGQPASECAKEVKPASTRPCADHPCPQWQLGEWSSCSKTCGKGYKKRSLKCLSHDGGVLSHESCDPLKKPKHFIDFCTMAECS
On to B1, for which the kcat/Km for cleavage of V1-5GAG (50 nM), time course with versikine ELISA in assay [5] is 4800 M⁻¹ s⁻¹.

B2: ADAMTS1 R756Q/R759Q/R762Q (β3-β4 loop of the spacer domain) (enzyme)
chain: FVSSHRYVETMLVADQSMAEFHGSGLKHYLLTLFSVAARLYKHPSIRNSVSLVVVKILVIHDEQKGPEVTSNAALTLRNFCNWQKQHNPPSDRDAEHYDTAILFTRQDLCGSQTCDTLGMADVGTVCDPSRSCSVIEDDGLQAAFTTAHELGHVFNMPHDDAKQCASLNGVNQDSHMMASMLSNLDHSQPWSPCSAYMITSFLDNGHGECLMDKPQNPIQLPGDLPGTSYDANRQCQFTFGEDSKHCPDAASTCSTLWCTGTSGGVLVCQTKHFPWADGTSCGEGKWCINGKCVNKTDRKHFDTPFHGSWGMWGPWGDCSRTCGGGVQYTMRECDNPVPKNGGKYCEGKRVRYRSCNLEDCPDNNGKTFREEQCEAHNEFSKASFGSGPAVEWIPKYAGVSPKDRCKLICQAKGIGYFFVLQPKVVDGTPCSPDSTSVCVQGQCVKAGCDRIIDSKKKFDKCGVCGGNGSTCKKISGSVTSAKPGYHDIITIPTGATNIEVKQQNQQGSQNNGSFLAIKAADGTYILNGDYTLSTLEQDIMYKGVVLRYSGSSAALERIRSFSPLKEPLTIQVLTVGNALRPKIKYTYFVKKKKESFNAIPTFSAWVIEEWGECSKSCELGWQRRLVECRDINGQPASECAKEVKPASTRPCADHPCPQWQLGEWSSCSKTCGKGYKKRSLKCLSHDGGVLSHESCDPLKKPKHFIDFCTMAECS
Regarding B2, the kcat/Km for cleavage of V1-5GAG (50 nM), time course with versikine ELISA in assay [5] worked out at 870 M⁻¹ s⁻¹.

B3: ADAMTS1 K818Q (β8-β9 loop of the spacer domain) (enzyme)
chain: FVSSHRYVETMLVADQSMAEFHGSGLKHYLLTLFSVAARLYKHPSIRNSVSLVVVKILVIHDEQKGPEVTSNAALTLRNFCNWQKQHNPPSDRDAEHYDTAILFTRQDLCGSQTCDTLGMADVGTVCDPSRSCSVIEDDGLQAAFTTAHELGHVFNMPHDDAKQCASLNGVNQDSHMMASMLSNLDHSQPWSPCSAYMITSFLDNGHGECLMDKPQNPIQLPGDLPGTSYDANRQCQFTFGEDSKHCPDAASTCSTLWCTGTSGGVLVCQTKHFPWADGTSCGEGKWCINGKCVNKTDRKHFDTPFHGSWGMWGPWGDCSRTCGGGVQYTMRECDNPVPKNGGKYCEGKRVRYRSCNLEDCPDNNGKTFREEQCEAHNEFSKASFGSGPAVEWIPKYAGVSPKDRCKLICQAKGIGYFFVLQPKVVDGTPCSPDSTSVCVQGQCVKAGCDRIIDSKKKFDKCGVCGGNGSTCKKISGSVTSAKPGYHDIITIPTGATNIEVKQRNQRGSRNNGSFLAIKAADGTYILNGDYTLSTLEQDIMYKGVVLRYSGSSAALERIRSFSPLQEPLTIQVLTVGNALRPKIKYTYFVKKKKESFNAIPTFSAWVIEEWGECSKSCELGWQRRLVECRDINGQPASECAKEVKPASTRPCADHPCPQWQLGEWSSCSKTCGKGYKKRSLKCLSHDGGVLSHESCDPLKKPKHFIDFCTMAECS
In the case of B3, in assay [5], the kcat/Km for cleavage of V1-5GAG (50 nM), time course with versikine ELISA was found to be 6050 M⁻¹ s⁻¹.

B4: ADAMTS1 variant 828-835 (β9-β10 loop residues 828-835 replaced by ADAMTS4 residues 788-795) (enzyme)
chain: FVSSHRYVETMLVADQSMAEFHGSGLKHYLLTLFSVAARLYKHPSIRNSVSLVVVKILVIHDEQKGPEVTSNAALTLRNFCNWQKQHNPPSDRDAEHYDTAILFTRQDLCGSQTCDTLGMADVGTVCDPSRSCSVIEDDGLQAAFTTAHELGHVFNMPHDDAKQCASLNGVNQDSHMMASMLSNLDHSQPWSPCSAYMITSFLDNGHGECLMDKPQNPIQLPGDLPGTSYDANRQCQFTFGEDSKHCPDAASTCSTLWCTGTSGGVLVCQTKHFPWADGTSCGEGKWCINGKCVNKTDRKHFDTPFHGSWGMWGPWGDCSRTCGGGVQYTMRECDNPVPKNGGKYCEGKRVRYRSCNLEDCPDNNGKTFREEQCEAHNEFSKASFGSGPAVEWIPKYAGVSPKDRCKLICQAKGIGYFFVLQPKVVDGTPCSPDSTSVCVQGQCVKAGCDRIIDSKKKFDKCGVCGGNGSTCKKISGSVTSAKPGYHDIITIPTGATNIEVKQRNQRGSRNNGSFLAIKAADGTYILNGDYTLSTLEQDIMYKGVVLRYSGSSAALERIRSFSPLKEPLTIQVLTAGNPQDTRIKYTYFVKKKKESFNAIPTFSAWVIEEWGECSKSCELGWQRRLVECRDINGQPASECAKEVKPASTRPCADHPCPQWQLGEWSSCSKTCGKGYKKRSLKCLSHDGGVLSHESCDPLKKPKHFIDFCTMAECS
As for B4, in assay [5], the kcat/Km for cleavage of V1-5GAG (50 nM), time course with versikine ELISA stood at 410 M⁻¹ s⁻¹.

B5: ADAMTS1 K735Q/K795Q (β1-β2 and β6-β7 loops of the spacer domain) (enzyme)
chain: FVSSHRYVETMLVADQSMAEFHGSGLKHYLLTLFSVAARLYKHPSIRNSVSLVVVKILVIHDEQKGPEVTSNAALTLRNFCNWQKQHNPPSDRDAEHYDTAILFTRQDLCGSQTCDTLGMADVGTVCDPSRSCSVIEDDGLQAAFTTAHELGHVFNMPHDDAKQCASLNGVNQDSHMMASMLSNLDHSQPWSPCSAYMITSFLDNGHGECLMDKPQNPIQLPGDLPGTSYDANRQCQFTFGEDSKHCPDAASTCSTLWCTGTSGGVLVCQTKHFPWADGTSCGEGKWCINGKCVNKTDRKHFDTPFHGSWGMWGPWGDCSRTCGGGVQYTMRECDNPVPKNGGKYCEGKRVRYRSCNLEDCPDNNGKTFREEQCEAHNEFSKASFGSGPAVEWIPKYAGVSPKDRCKLICQAKGIGYFFVLQPKVVDGTPCSPDSTSVCVQGQCVKAGCDRIIDSKKKFDKCGVCGGNGSTCKKISGSVTSAQPGYHDIITIPTGATNIEVKQRNQRGSRNNGSFLAIKAADGTYILNGDYTLSTLEQDIMYQGVVLRYSGSSAALERIRSFSPLKEPLTIQVLTVGNALRPKIKYTYFVKKKKESFNAIPTFSAWVIEEWGECSKSCELGWQRRLVECRDINGQPASECAKEVKPASTRPCADHPCPQWQLGEWSSCSKTCGKGYKKRSLKCLSHDGGVLSHESCDPLKKPKHFIDFCTMAECS
Turning to B5, in assay [5], the kcat/Km for cleavage of V1-5GAG (50 nM), time course with versikine ELISA was found to be 570 M⁻¹ s⁻¹.

B6: ADAMTS1 K795Q (β6-β7 loop of the spacer domain) (enzyme)
chain: FVSSHRYVETMLVADQSMAEFHGSGLKHYLLTLFSVAARLYKHPSIRNSVSLVVVKILVIHDEQKGPEVTSNAALTLRNFCNWQKQHNPPSDRDAEHYDTAILFTRQDLCGSQTCDTLGMADVGTVCDPSRSCSVIEDDGLQAAFTTAHELGHVFNMPHDDAKQCASLNGVNQDSHMMASMLSNLDHSQPWSPCSAYMITSFLDNGHGECLMDKPQNPIQLPGDLPGTSYDANRQCQFTFGEDSKHCPDAASTCSTLWCTGTSGGVLVCQTKHFPWADGTSCGEGKWCINGKCVNKTDRKHFDTPFHGSWGMWGPWGDCSRTCGGGVQYTMRECDNPVPKNGGKYCEGKRVRYRSCNLEDCPDNNGKTFREEQCEAHNEFSKASFGSGPAVEWIPKYAGVSPKDRCKLICQAKGIGYFFVLQPKVVDGTPCSPDSTSVCVQGQCVKAGCDRIIDSKKKFDKCGVCGGNGSTCKKISGSVTSAKPGYHDIITIPTGATNIEVKQRNQRGSRNNGSFLAIKAADGTYILNGDYTLSTLEQDIMYQGVVLRYSGSSAALERIRSFSPLKEPLTIQVLTVGNALRPKIKYTYFVKKKKESFNAIPTFSAWVIEEWGECSKSCELGWQRRLVECRDINGQPASECAKEVKPASTRPCADHPCPQWQLGEWSSCSKTCGKGYKKRSLKCLSHDGGVLSHESCDPLKKPKHFIDFCTMAECS
Regarding B6, in assay [5], the kcat/Km for cleavage of V1-5GAG (50 nM), time course with versikine ELISA is 730 M⁻¹ s⁻¹.

B7: ADAMTS1 variant 756-765/828-835 (β3-β4 and β9-β10 loops replaced by those of ADAMTS4) (enzyme)
chain: FVSSHRYVETMLVADQSMAEFHGSGLKHYLLTLFSVAARLYKHPSIRNSVSLVVVKILVIHDEQKGPEVTSNAALTLRNFCNWQKQHNPPSDRDAEHYDTAILFTRQDLCGSQTCDTLGMADVGTVCDPSRSCSVIEDDGLQAAFTTAHELGHVFNMPHDDAKQCASLNGVNQDSHMMASMLSNLDHSQPWSPCSAYMITSFLDNGHGECLMDKPQNPIQLPGDLPGTSYDANRQCQFTFGEDSKHCPDAASTCSTLWCTGTSGGVLVCQTKHFPWADGTSCGEGKWCINGKCVNKTDRKHFDTPFHGSWGMWGPWGDCSRTCGGGVQYTMRECDNPVPKNGGKYCEGKRVRYRSCNLEDCPDNNGKTFREEQCEAHNEFSKASFGSGPAVEWIPKYAGVSPKDRCKLICQAKGIGYFFVLQPKVVDGTPCSPDSTSVCVQGQCVKAGCDRIIDSKKKFDKCGVCGGNGSTCKKISGSVTSAKPGYHDIITIPTGATNIEVKQQGNPGHRSSFLAIKAADGTYILNGDYTLSTLEQDIMYKGVVLRYSGSSAALERIRSFSPLKEPLTIQVLTAGNPQDTRIKYTYFVKKKKESFNAIPTFSAWVIEEWGECSKSCELGWQRRLVECRDINGQPASECAKEVKPASTRPCADHPCPQWQLGEWSSCSKTCGKGYKKRSLKCLSHDGGVLSHESCDPLKKPKHFIDFCTMAECS
In the case of B7, the kcat/Km for cleavage of V1-5GAG (50 nM), time course with versikine ELISA in assay [5] is 460 M⁻¹ s⁻¹.
